Paper PMC3542407 (Journal of biotechnology, 2012)

What was measured:
LlAdhA = LlAdhA (Lactococcus lactis, UniProt Q9CEN0, Y50F/N110S/I212T/L264V); assay: NADH consumption at […] nm; conditions: read-out: LlAdhA^29C8 / KM; 200 µM NADH; 100 mM Tris pH 7, 1 mM DTT; 25°C
CC=O = assay: purified protein; conditions: 200 µM NADH, 100 mM Tris pH 7, 1 mM DTT, 25°C
CC(C)C=O = assay: purified protein; conditions: 200 µM NADH, 100 mM Tris pH 7, 1 mM DTT, 25°C
O=Cc1ccc(CO)o1 = assay: purified protein; conditions: 200 µM NADH, 100 mM Tris pH 7, 1 mM DTT, 25°C
O=CC=Cc1ccccc1 = assay: purified protein; format: biochemical, Lactococcus lactis; conditions: 200 µM NADH, 100 mM Tris pH 7, 1 mM DTT, 25°C
O=Cc1ccco1 = assay: purified protein; format: biochemical, Lactococcus lactis; conditions: 200 µM NADH, 100 mM Tris pH 7, 1 mM DTT, 25°C

Row | Compound | Km (LlAdhA) | Km (CC=O) | kcat (CC=O) | kcat/Km (CC=O) | Km (CC(C)C=O) | kcat (CC(C)C=O) | kcat/Km (CC(C)C=O) | Km (O=Cc1ccc(CO)o1) | kcat (O=Cc1ccc(CO)o1) | kcat/Km (O=Cc1ccc(CO)o1) | Km (O=CC=Cc1ccccc1) | kcat (O=CC=Cc1ccccc1) | kcat/Km (O=CC=Cc1ccccc1) | Km (O=Cc1ccco1) | kcat (O=Cc1ccco1) | kcat/Km (O=Cc1ccco1)
1 | O=Cc1ccco1 [2-furaldehyde] | 200 µM | – | – | – | – | – | – | – | – | – | – | – | – | – | – | –
2 | LlAdhA (Lactococcus lactis subsp. lactis Il1403) | – | 400 µM | 35 s⁻¹ | 94000 M⁻¹ s⁻¹ | 12000 ± 1000 µM | 30 ± 1 s⁻¹ | 2800 ± 200 M⁻¹ s⁻¹ | 22000 µM | 19 s⁻¹ | 880 M⁻¹ s⁻¹ | 700 µM | 27 s⁻¹ | 39000 M⁻¹ s⁻¹ | 390 µM | 22 s⁻¹ | 57000 M⁻¹ s⁻¹
3 | LlAdhA (Lactococcus lactis subsp. lactis Il1403; I212T/L264V/Y50F) | – | 500 µM | 31 s⁻¹ | 57000 M⁻¹ s⁻¹ | 1700 ± 10 µM | 140 ± 1 s⁻¹ | 82000 ± 1000 M⁻¹ s⁻¹ | 670 µM | 23 s⁻¹ | 34000 M⁻¹ s⁻¹ | – | – | – | – | – | –
4 | LlAdhA (Lactococcus lactis subsp. lactis Il1403; L264V/Y50F) | – | – | – | – | 1600 ± 200 µM | 50 ± 1 s⁻¹ | 32000 ± 4000 M⁻¹ s⁻¹ | – | – | – | – | – | – | – | – | –
5 | LlAdhA (Lactococcus lactis subsp. lactis Il1403; I212T/L264V/N110S/Y50F) | – | 920 µM | 58 s⁻¹ | 63000 M⁻¹ s⁻¹ | 680 ± 70 µM | 300 ± 4 s⁻¹ | 440000 ± 50000 M⁻¹ s⁻¹ | 570 µM | 29 s⁻¹ | 51000 M⁻¹ s⁻¹ | – | – | – | – | – | –
